Experimental data from article PMC11291072 (bioRxiv, 2024).

Target: T1, ERK2-phosphorylated human PPARγ2 AF-1 domain (pS112 + pT75), residues 1-136 (human, UniProt P37231-1 1-136)
T1 sequence: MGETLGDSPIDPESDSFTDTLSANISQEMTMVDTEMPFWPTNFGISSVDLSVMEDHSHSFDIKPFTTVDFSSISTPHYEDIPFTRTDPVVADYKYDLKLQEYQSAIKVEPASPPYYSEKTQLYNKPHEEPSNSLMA
Test: NMR titration

binding result: binds
B1: Pin1 PPIase domain (residues 42-163) (domain or fragment)
chain: SSGGKNGQGEPARVRCSHLLVKHSQSRRPSSWRQEKITRTKEEALELINGYIQKIKSGEEDFESLASQFSDCSSAKARGDLGAFSRGQMQKPFEDASFALRTGEMSGPVFTDSGIHIILRTE
